The text below walks through data of patent US20230100941A1, “MOLECULES TARGETING MUTANT RAS PROTEIN” (AELIN THERAPEUTICS, priority 2020, published 2023).

Ends that are not written are not given here.

One experiment deals with T1, G12C mutant KRAS (Homo sapiens, UniProt P01116, G12C).
T1 construct: made in house; host or cells: cell-free: PURExpress In Vitro Protein Synthesis Kit (New England Biolabs), linear T7 PCR template
Put plainly: In vitro translation assay with streptavidin pull-down of biotinylated pept-ins, Western blot for KRAS. The experiment is classed as binding. As to conditions: 10 μM biotinylated pept-in. On the procedure: (§1) In vitro translation assays were performed using the PURExpress® In Vitro Protein Synthesis Kit (New England Biolabs) according to the manufacturer's instructions. Briefly, linear DNA fragments containing T7 promotor and terminator sequences flanking the KRAS coding sequence were generated using PCR and purified using the MinElute PCR Purification Kit (Qiagen). 250 ng of linear DNA was subsequently used for the in vitro translation reaction, which was performed for 2 hours at 37° C. with shaking (1000 rpm). Indicated biotinylated pept-ins were mixed in the translation reactions from a 5 mM stock solution in 6M Urea to a final concentration of 10 μM. Upon completion of the translation reaction, biotinylated pept-ins were captured from the reaction mix using Streptavidin coated beads (Pierce) during 90 min at room temperature. Beads were next washed with TBS containing 0.1% Tween 20 and bound proteins were finally boiled off in 1×SDS loading dye (Bio-Rad) in TBS buffer. Proteins were resolved using Any kD 15-well Mini-PROTEAN gels (Bio-Rad) during SDS-PAGE and probed for KRAS after Western blotting using a mouse monoclonal KRAS-specific antibody (SC-30, Santa Cruz Biotechnology), which was detected with an HRP-coupled anti-mouse secondary antibody using chemiluminescence on a Bio-Rad Chemidoc MP imaging instrument.
(§2) To mimic this in vitro, we devised an in vitro translation setup producing either wild-type or mutant (G12V, G12C, G12D or G13D) KRAS in the presence of biotinylated RAS-targeting pept-ins. This allowed us to perform a streptavidin pull-down to capture the biotinylated pept-ins from the translation reaction and perform SDS-PAGE and Western blotting to probe the pulled-down fraction for the presence of KRAS. The biotinylated version of pept-in 04-004-N001, i.e. 04-004-N011, which harbours an APR window sequence derived from a wild-type APR, is predicted to target all RAS proteins independently from their mutation status.
On the technique in general: Immunoblotting shows a protein as a band on a membrane.

For the next experiment, the target named is T2, G12D mutant KRAS (Homo sapiens, UniProt P01116, G12D).
T2 construct: made in house; host or cells: cell-free: PURExpress In Vitro Protein Synthesis Kit (New England Biolabs), linear T7 PCR template
The experiment is described as above. The experiment is classed as binding. As to conditions: 10 μM biotinylated pept-in. How it is done:
as §1, §2

The target in another experiment is T3, G12V mutant KRAS (Homo sapiens, UniProt P01116, G12V).
T3 construct: made in house; host or cells: cell-free: PURExpress In Vitro Protein Synthesis Kit (New England Biolabs), linear T7 PCR template
The description is as above. The experiment is classed as binding. The settings on record: 10 μM biotinylated pept-in. How it is done:
as §1, §2

Another experiment addresses T4, G13D mutant KRAS (Homo sapiens, UniProt P01116, G13D).
T4 construct: made in house; host or cells: cell-free: PURExpress In Vitro Protein Synthesis Kit (New England Biolabs), linear T7 PCR template
The description is as above. The experiment is classed as binding. The settings on record: 10 μM biotinylated pept-in. How it is done:
as §1, §2

The target of another experiment is T5, KRAS wild-type (Homo sapiens, UniProt P01116).
T5 construct: made in house; host or cells: cell-free: PURExpress In Vitro Protein Synthesis Kit (New England Biolabs), linear T7 PCR template
The experiment is described as above. The experiment is classed as binding. The settings on record: 10 μM biotinylated pept-in. On the procedure: as §1, §2

Experiment [1] deals with T6, mutant G12V KRAS in RASless MEFs (Homo sapiens, UniProt P01116, G12V).
T6 construct: host or cells: RASless mouse embryonic fibroblasts (HRAS/NRAS-null, endogenous KRAS removed)
Put plainly: Cellular co-immunoprecipitation assay in RASless MEFs. The experiment is classed as cell-based, mouse. The settings on record: 25 μM biotinylated pept-in, 16 hours. On the procedure:
(§3) Cellular co-immunoprecipitation assays were performed using either KRAS wild-type or mutant G12V expressing RASless MEFs (see elsewhere) or human NCI-H441 lung adenocarcinoma tumor cells and N-terminally biotinylated pept-ins. Cells were seeded at a density of 300,000 cells in a clear 6-well plate (Cellstar, Greiner). One day after seeding, cells were treated with indicated pept-ins at a final concentration of 25 μM and incubated for […]. Next, cells were lysed with NP-40 lysis buffer (150 mM NaCl, 50 mM Tris HC1 pH8, 1% IGEPAL(NP40), 1xHalt phosphatase/protease inhibitors (Thermo), 1U/μl Universal Nuclease (Pierce)) and biotinylated pept-ins were captured with streptavidin-coated magnetic beads (Pierce) during 1 hours at room temperature. Beads were washed with NP40 lysis buffer at least 3 times, after which bound proteins were boiled off in 1× SDS loading dye (Bio-Rad) in NP40 lysis buffer. Proteins were resolved using Any kD 15-well Mini-PROTEAN gels (Bio-Rad) during SDS-PAGE and probed for KRAS after Western blotting using a rabbit polyclonal KRAS-specific antibody (12063-1-AP, Proteintech).
(§4) To this end, relevant MEF cells were treated with 25 μM biotinylated pept-ins overnight (16 hours). Next, cells were lysed, and pept-ins were immunoprecipitated from the lysates using streptavidin-coated beads. […]

Experiment [2] deals with T7, wild-type KRAS in RASless MEFs (Homo sapiens, UniProt P01116).
T7 construct: host or cells: RASless mouse embryonic fibroblasts (HRAS/NRAS-null, endogenous KRAS removed)
Described as above. The experiment is classed as cell-based, mouse. The settings on record: 25 μM biotinylated pept-in, 16 hours. How it is done:
as §3, §4

In experiment [3] the test system is HeLa cell line overexpressing mCherry-tagged KRAS G12V. Put plainly: Cellular fluorescent imaging of FITC-labelled pept-ins. The settings on record: 75 min after treatment. The experiment is classed as cell-based, human. On the procedure:
Fluorescent cellular imaging was performed using HeLa cells that were transduced with lentiviral particles carrying a construct expressing KRAS G12V labeled N-terminally with mCherry. Cells were seeded in a black μclear® Cellstar® F-bottom 96-well plates (Greiner) in 100 μL full growth medium. […] Next, cells were fixed, washed and counterstained with the nuclear dye NucBlue™ (containing Hoechst 33342). Images were captured on a Leica confocal microscope.
To complement the co-immunoprecipitation approach, we also used a cellular imaging approach to show target engagement. To this end, we generated a HeLa cell line overexpressing mCherry-tagged KRAS G12V and FITC-labelled versions of the RAS-targeting pept-ins.

“04-004-N011: biotinylated version of pept-in 04-004-N001 (KLSVFAIKGSKLSVFAIK; also: biotinylated, site not given here)”: in the experiment with G12C mutant KRAS, the “pull-down of G12C mutant KRAS” value is listed as “efficient pull-down”. Moreover, the “pull-down of G12D mutant KRAS” value in the experiment with G12D mutant KRAS is recorded as “less efficient”. In the experiment with G12V mutant KRAS, the “pull-down of G12V mutant KRAS” value is “efficient pull-down”. The “pull-down of G13D mutant KRAS” value in the experiment with G13D mutant KRAS is “less efficient”. In the experiment with KRAS wild-type, the “pull-down of KRAS wild-type” value is “efficient pull-down”. Also, the “co-precipitation of mutant G12V KRAS” value in experiment [1] is “appeared to precipitate both wild-type and mutant G12V KRAS well”. The “co-precipitation of wild-type KRAS” value in experiment [2] was “appeared to precipitate both wild-type and mutant G12V KRAS well”.
As to “04-015-N032: FITC-labelled version of pept-in 04-015-N001 (KVVVGAVGKGSKVVVGAVGK; also: FITC-labelled, site not given here)”, in experiment [3], the “association with mCherry-labelled KRAS (inclusion-like perinuclear structures)” value is “associates with mCherry-labelled KRAS”.
